Measurements published in publication PMC9918506, “Structural insights into pathogenic mechanism of hypohidrotic ectodermal dysplasia caused by ectodysplasin A variants” (Nature Communications, 2023).

B3: EDA·A1 TNF homology domain (EDA·A1THD, residues 233–391), wild type (domain or fragment, human, UniProt Q92838 233-391, looked up)
chain: GPSGAADKAGTRENQPAVVHLQGQGSAIQVKNDLSGGVLNDWSRITMNPKVFKLHPRSGELEVLVDGTYFIYSQVEVYYINFTDFASYEVVVDEKPFLQCTRSIETGKTNYNTCYTAGVCLLKARQKIAVKMVHADISINMSKHTTFFGAIRLGEAPAS
notes: ectodysplasin A, splice form EDA·A1 (with Val307-Glu308), human, THD residues 233-391; Optimized cDNA in pMAL-c2x; MBP removed with 3C protease; Trimer in the crystal structure; also called WT EDA·A1THD; ectodysplasin A THD; source: E. coli BL21 CodonPlus (DE3), purified (amylose, Superdex 200, 3C cleavage, Mono-S, Superdex 200); not shown: MBP, N-terminal, cleaved

How the values were obtained:
[1] = target: T1, EDA·A1 TNF homology domain (EDA·A1THD, residues 233-391) (human, UniProt Q92838 233-391); experiment: SEC; gel filtration on a Superdex 200 analytical column, fractions on SDS-PAGE; EDA·A1THD alone, EDAR_(CRDS) alone and the mixture; details: both partners purified
T1 construct: ectodysplasin A, splice form EDA·A1, human, TNF homology domain, residues 233-391; MBP removed with 3C protease; codon-optimised cDNA in pMAL-c2x; Trimer in the crystal structure; also called EDATHD; ectodysplasin A; source: E. coli BL21 CodonPlus (DE3), purified (amylose beads, Superdex 200, Mono-S, Superdex 200 increase); not shown: MBP, N-terminal, cleaved
T1 sequence (looked up): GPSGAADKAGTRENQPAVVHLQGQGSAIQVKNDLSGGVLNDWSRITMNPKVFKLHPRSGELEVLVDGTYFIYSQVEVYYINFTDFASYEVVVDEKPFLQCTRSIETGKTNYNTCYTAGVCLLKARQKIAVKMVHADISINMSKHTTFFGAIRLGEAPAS

[2] = target: B3; experiment: SPR; WT and mutant EDA·A1THD immobilised on CM5 chips, EDAR_(CRDS) serially diluted and injected; Biacore 8K; 10 mM HEPES pH 7.5, 150 mM NaCl, 3 mM EDTA, 25 °C; steady-state analysis at equilibrium; details: both partners purified
[3] = target: EDA·A1THD (residues 233–391) R276C (human, UniProt Q92838 233-391, R276C); experiment: SPR
[4] = target: the molecule itself; experiment: crystal structure; EDA·A1THD and EDAR_(CRDS) mixed at a molar ratio of 1:1; crystals in 25% PEG-6000, 0.1 M BICINE pH 9.0, 4 °C; 2.8 Å

B1: EDAR cysteine-rich domains (EDAR_(CRDS), residues 30-150) (domain or fragment, human, UniProt Q9UNE0 30-150, looked up)
chain: NCGENEYYNQTTGLCQECPPCGPGEEPYLSCGYGTKDEDYGCVPCPAEKFSKGGYQICRRHKDCEGFFRATVLTPGDMENDAECGPCLPGYYMLENRPRNIYGMVCYSCLLAPPNTKECVG
notes: EDAR, human, N-terminal cysteine-rich domains, residues 30-150; MBP removed with 3C protease; also called EDAR ectodomain; source: Hi5 insect cells (baculovirus), secreted, purified (amylose beads, Mono-Q, Superdex 200); not shown: MBP, N-terminal, cleaved
Does B1 bind [1]?
Result: binds

B2: EDAR cysteine-rich domains (EDAR_(CRDS), residues 30–150), MBP tag removed (domain or fragment, human)
chain: GGSGGSGGSGGSNCGENEYYNQTTGLCQECPPCGPGEEPYLSCGYGTKDEDYGCVPCPAEKFSKGGYQICRRHKDCEGFFRATVLTPGDMENDAECGPCLPGYYMLENRPRNIYGMVCYSCLLAPPNTKECVG
notes: EDAR (ectodysplasin A receptor), human, cysteine-rich domains CRD1-CRD3, residues 30-150; Construct: EDAR signal peptide (residues 1-28), MBP, 3C site, linker, EDAR 30-150; That the linker stays on the protein after 3C cleavage follows only from the order in which the methods list the elements; also called ectodomains of EDAR; source: Hi5 insect cells (baculovirus), secreted, purified (amylose, …)
For B2, which Kd [2] is on record?
The Kd was 18.5 nM.

What about the Kd [3] of the same binder?
Its Kd is 35.9 nM.

How did the “stoichiometry N” value [4] turn out when B3 was run?
The value was 3.
